Key:
Type in all cases: cell-based, human
U266 = experiment: IFN-γ ELISA, stimulation by tumor cell lines; conditions: transduced CD8+ T cells 40,000, target cells 20,000
From the text: (§1) IFN-γ ELISA was used to assess cytokine secretion upon stimulation of T11.8-10-17-transduced T cells (CD8_T11.8-10-17) with a panel of HLA-A*02:01 positive, NY-ESO-1/LAGE-1 positive human tumor cell lines (Me1624.38, FM6, FM3.29, MM415, SAOS2, U266). NY-ESO-1/LAGE-1 expression in the target cells was detected by NanoString nCounter® analysis. As positive control for T11.8-10-17-transduced T cells, T2 cells were loaded with SLL-peptide (10^−5 M). As negative controls for the effector function, T11.8-10-17-transduced T cells were co-cultured with T2 cells loaded with irrelevant (FTV) peptide (10^−5M), SK-Me123 (HLA-A2pos, NY-ESO-1/LAGE-1neg) or SKM1 (HLA-A2pos, NY-ESO-1/LAGE-1neg), or untransduced T cells were co-cultured with tumor cells or peptide-loaded T2 cells. Cultivation of target cells without effector cells served as an additional negative control. Target cells were co-cultured with T cells at a ratio of 2:1 using 40,000 T11.8-10-17-transduced T cells and 20,000 target cells. (FIG. 3).

SAOS2 = experiment: IFN-γ ELISA, stimulation by tumor cell lines; conditions: transduced CD8+ T cells 40,000, target cells 20,000
From the text: as §1

[1] = system: SKM1 (HLA-A2pos, NY-ESO-1/LAGE-1neg); experiment: IFN-γ ELISA, stimulation by tumor cell lines; conditions: antigen-negative line; transduced CD8+ T cells 40,000, target cells 20,000
From the text: as §1

MM415 = experiment: IFN-γ ELISA, stimulation by tumor cell lines; conditions: transduced CD8+ T cells 40,000, target cells 20,000
From the text: as §1

FM3.29 = experiment: IFN-γ ELISA, stimulation by tumor cell lines; conditions: transduced CD8+ T cells 40,000, target cells 20,000
From the text: as §1

Me1624.38 = experiment: IFN-γ ELISA, stimulation by tumor cell lines; conditions: transduced CD8+ T cells 40,000, target cells 20,000
From the text: as §1

[2] = system: SK-Me123 (HLA-A2pos, NY-ESO-1/LAGE-1neg); experiment: IFN-γ ELISA, stimulation by tumor cell lines; conditions: antigen-negative line; transduced CD8+ T cells 40,000, target cells 20,000
From the text: as §1

FM6 = experiment: IFN-γ ELISA, stimulation by tumor cell lines; conditions: transduced CD8+ T cells 40,000, target cells 20,000
From the text: as §1

peptide-loaded T2 cells [3] = experiment: Recognition of mismatched epitopes: IFN-γ ELISA with peptide-loaded T2 cells; conditions: ratio 1:1
Method: As a negative control, untransduced CD8^+ enriched PBMC (CD8_UT) were used as effector cells or TCR-transgenic T cells were stimulated with irrelevant (irr.; […]) peptide-loaded T2 cells (10^−5 M). Background IFN-γ secretion of target cells was also tested (targets only). As a positive control T cells were activated by SLL peptide (#10*)-loaded T2 cells (10^−5 M). […] IFN-γ secretion was measured by standard ELISA in [pg/mL].

[4] = system: HLA-A*02:01-transgenic K562 cells; experiment: Recognition of ivtRNA mismatched epitopes: IFN-γ ELISA with HLA-A*02:01-transgenic K562 cells; conditions: 16 hours
Method: For this experiment, 3×10^6 K562 cells in 300 μl RPMI1640 medium were electroporated with 20 μg either NY-ESO-1 or eGFP-ivtRNA (300 Volt and 300 μF; exponential pulse). As positive control, T cells were stimulated with HLA-A*02:01-transgenic K562 cells loaded with either the SLL-peptide (10^−5M) (K562-A2+SLL) or with 20 μg ivtRNA encoding NY-ESO-1 (K562-A2+NY-ESO-1). As a negative control HLA-A*02:01-transgenic K562 were either loaded with irrelevant peptide (10^−5M; K562-A2+FTV) or with 20 μg ivtRNA encoding eGFP (K562-A2+eGFP).

[5] = system: T2 cells loaded with NY-ESO-1/LAGE-1157-165 (SLL) peptide (T2(SLL)); experiment: Secretion of MIP-1α and MIP-1β, multiplex assay (Milliplex MAP Kit); conditions: T2(SLL) 10^−5 M; ratio 1:1, 10 000 cells each; 18 hours; two donors; compared with the other TCR
Method: As negative control, T11.8-10-17- or benchmark-transgenic CD8^+ T cells were stimulated with HLA-A*02:01 positive FTV-loaded T2 cells or untransduced CD8^+ enriched PBMC (CD8_ut) were co-cultured with peptide-loaded T2 cells. Furthermore, T2 cells or T cells were cultured separately.
Target cells and T cells were co-cultured at a ratio of 1:1 using 10 000 target cells and 10 000 T11.8-10-17- or benchmark-TCR-transduced T cells. Secretion of MIP-1α and MIP-1β by either T11.8-10-17- or benchmark-transgenic CD8^+ T cells was determined 18 hours after setting up the co-culture by multiplex assay using the Milliplex MAP Kit and analyzed by the MagPix analyzer.

peptide-loaded T2 cells [6] = experiment: IFN-γ ELISA, peptide-loaded T2 controls of the tumor cell line panel
From the text: as §1

[7] = system: MM415 tumor cell line (HLA-A*02 positive, NY-ESO-1/LAGE-1 positive); experiment: Killing of tumor cells, Annexin V live-cell imaging (IncuCyte ZOOM); conditions: TCR-transduced CD8+ T cells, effector-to-target about 4:1
Method: (§2) The killing capacity of T11.8-10-17- or benchmark-TCR-transduced CD8^+ T cells (CD8-T11.8-10-17 or CD8 benchmark-TCR) was evaluated by co-culturing with the HLA-A*02 positive NY-ESO-1/LAGE-1 positive tumor cell line Me1624.38 (FIG. 2a). In addition, killing of CD8-T11.8-10-17 was also tested with the HLA-A*02 positive NY-ESO-1/LAGE-1 positive tumor cell line MM415 (FIG. 2b). As a negative control, untransduced CD8^+ enriched PBMC were used as effector cells (CD8 UT) or the HLA-A*02 positive but NY-ESO-1/LAGE-1 negative tumor cell line SK-Me123 was used as target cells. The co-cultures were set-up at an effector-to-target ratio of about 4:1, i.e. 10,000 adherent tumor cells were seeded one day prior to the co-culture and subsequently 40,000 transgenic TCR^+ T cells were added. An increase of red fluorescent target cells (Total Integrated Intensity in GCU×μm^2/Image) that indicates induction of apoptosis of target cells (Annexin V, red), was measured every four hours over a total time period of 67 hours using live-cell monitoring (IncuCyte® ZOOM).

[8] = system: Me1624.38 tumor cell line (HLA-A*02 positive, NY-ESO-1/LAGE-1 positive); experiment: as above; conditions: TCR-transduced CD8+ T cells, effector-to-target about 4:1
Method: as §2

[9] = system: SK-Me123 tumor cell line (HLA-A*02 positive, NY-ESO-1/LAGE-1 negative); experiment: as above; conditions: antigen-negative target line; effector-to-target about 4:1; 67 hours
Method: as §2

B1: T11.8-10-17: TCR of T cell clone T11.8-10-17 specific for NY-ESO-1/LAGE-1157-165 on HLA-A*02:01; variable α SEQ ID NO: 10, variable β SEQ ID NO: 11 (protein, listed as Homo sapiens)
alpha: MKSLRVLLVILWLQLSWVWSQQKEVEQNSGPLSVPEGAIASLNCTYSDRGSQSFFWYRQYSGKSPELIMFIYSNGDKEDGRFTAQLNKASQYVSLLIRDSQPSDSATYLCAADDKIIFGKGTRLHILPN
beta: MGSWTLCCVSLCILVAKHTDAGVIQSPRHEVTEMGQEVTLRCKPISGHDYLFWYRQTMMRGLELLIYFNNNVPIDDSGMPEDRFSAKMPNASFSTLKIQPSEPRDSAVYFCASSRGGSGYTFGSGTRLTVVE
U266
  IFN-γ secretion: high amounts of IFN-γ secretion
SAOS2
  IFN-γ secretion: high amounts of IFN-γ secretion
[1]
  recognition (IFN-γ secretion): no recognition
MM415
  IFN-γ secretion: high amounts of IFN-γ secretion
FM3.29
  IFN-γ secretion: high amounts of IFN-γ secretion
Me1624.38
  IFN-γ secretion: high amounts of IFN-γ secretion
[2]
  recognition (IFN-γ secretion): no recognition
FM6
  IFN-γ secretion: high amounts of IFN-γ secretion
peptide-loaded T2 cells [3]; T2 + irrelevant peptide (FTVSGNILTI) 10^−5 M
  peptide recognition (IFN-γ secretion): not the irrelevant peptide
peptide-loaded T2 cells [3]; T2 + peptide #3 10^−5 M
  cross-recognition (IFN-γ secretion): cross-recognized
peptide-loaded T2 cells [3]; T2 + peptide #6 10^−5 M
  cross-recognition (IFN-γ secretion): slightly activated
peptide-loaded T2 cells [3]; T2 + peptide #11 10^−5 M
  cross-recognition (IFN-γ secretion): slightly activated
peptide-loaded T2 cells [3]; T2 + peptide #32 10^−5 M
  cross-recognition (IFN-γ secretion): slightly activated
peptide-loaded T2 cells [3]; T2 + peptide #34 10^−5 M
  cross-recognition (IFN-γ secretion): slightly activated
peptide-loaded T2 cells [3]; T2 + peptide #51 10^−5 M
  cross-recognition (IFN-γ secretion): slightly activated
peptide-loaded T2 cells [3]; T2 + positive control peptide SLL (SLLMWITQC) 10^−5 M
  peptide recognition (IFN-γ secretion): recognized
[4]; K562-A2+#3, ivtRNA long peptide
  cross-recognition of internally processed peptide (IFN-γ release): no cross-recognition
[4]; K562-A2+#6, ivtRNA long peptide
  cross-recognition of internally processed peptide (IFN-γ release): no cross-recognition
[4]; K562-A2+#11, ivtRNA long peptide
  cross-recognition of internally processed peptide (IFN-γ release): no cross-recognition
[4]; K562-A2+#32, ivtRNA long peptide
  cross-recognition of internally processed peptide (IFN-γ release): no cross-recognition
[4]; K562-A2+#34, ivtRNA long peptide
  cross-recognition of internally processed peptide (IFN-γ release): no cross-recognition
[4]; K562-A2+#51, ivtRNA long peptide
  cross-recognition of internally processed peptide (IFN-γ release): no cross-recognition
[4]; K562-A2+NYESO, NY-ESO-1-ivtRNA transfected
  recognition (IFN-γ release): recognized
[4]; K562-A2+SLL, peptide-loaded 10^−5 M, target:T cell 2:1
  recognition (IFN-γ release): recognized
[4]; K562-A2+eGFP ivtRNA
  recognition (IFN-γ release): did not recognize
[4]; K562-A2+irr., irrelevant peptide 10^−5 M
  recognition (IFN-γ release): did not recognize
[5]
  MIP-1α secretion: markedly lower amounts
  MIP-1β secretion: markedly lower amounts
peptide-loaded T2 cells [6]; T2 cells loaded with SLL-peptide (10^−5 M)
  IFN-γ secretion: high amounts of IFN-γ secretion
peptide-loaded T2 cells [6]; T2 cells loaded with irrelevant (FTV) peptide (10^−5 M)
  recognition (IFN-γ secretion): no recognition
[7]
  start of increase of red fluorescence (killing): 10 h
[7]; 67 hours
  killing of target cells (increase of red fluorescence, Annexin V): showed killing
[8]
  start of increase of red fluorescence (killing): 10 h
[8]; 67 hours
  killing of target cells (increase of red fluorescence, Annexin V): showed killing
[9]
  killing of target cells (increase of red fluorescence, Annexin V): no increase of red fluorescence was observed

Source: patent publication US12103957B2, “NYESO TCR” (MEDIGENE IMMUNOTHERAPIES GMBH, priority 2018, dated 2024)
